Reference: article PMC12216326

Legend:
[1] = molecular target: GST-DDX39B (residues 1-428) (human) (UniProt Q13838)
[2] = molecular target: GST-DDX39B (residues 1-428) (human) (UniProt Q13838); remark: listed apart in the source

Chain of UniProt Q13838 (Q13838 whole entry, the tested form may be a part): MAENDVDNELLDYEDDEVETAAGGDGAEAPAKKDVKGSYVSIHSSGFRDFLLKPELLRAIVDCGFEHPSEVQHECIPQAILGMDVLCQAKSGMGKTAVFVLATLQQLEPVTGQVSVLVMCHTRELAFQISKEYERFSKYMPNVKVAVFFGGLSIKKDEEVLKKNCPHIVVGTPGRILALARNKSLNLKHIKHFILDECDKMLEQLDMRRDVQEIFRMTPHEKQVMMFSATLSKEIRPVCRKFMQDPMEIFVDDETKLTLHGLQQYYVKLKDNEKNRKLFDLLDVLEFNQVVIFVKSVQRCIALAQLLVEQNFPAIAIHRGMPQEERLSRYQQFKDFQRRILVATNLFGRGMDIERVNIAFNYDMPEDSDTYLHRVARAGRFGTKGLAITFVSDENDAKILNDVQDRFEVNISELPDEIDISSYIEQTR

ATPase activity of DDX39B (NADH enzyme-coupled assay with poly(A) RNA), stimulation by TREX-2.1 [1] [fold]	ATPase activity of DDX39B, stimulation by TREX-2.1-mut against wild-type TREX-2.1 (fold reduction) [2]	Substance
80	–	TREX-2.1 complex (LENG8 residues 490-800/PCID2/DSS1) (from UniProt Q96PV6-2 490-800; Q5JVF3 1-399; P60896 1-70)
–	4	TREX-2.1-mut (LENG8 residues 490-800 with 563RLTCAP568 replaced by GGGG/PCID2/DSS1) (from UniProt Q96PV6-2 490-800; Q5JVF3 1-399; P60896 1-70) (complex)
